Experimental data published in PMC8254758 (Structure (London, England : 1993), 2021).
One block for each molecule: values may come before it.

Assays:
[1] = target: rat NLGN2(+A) extracellular domain (Val43-His612, with splice insert SSA) (rat) (UniProt Q62888); assay: SPR
[2] = target: full-length SPARC (SPARC_C1) and the SPARC FS-EC domains (SPARC_C2); assay: fluorescence polarisation
[3] = target: T1, rat NLGN2(+A) extracellular domain (Val43-His612, with splice insert SSA) (rat, UniProt Q62888-1 43-612); assay: fluorescence polarisation
T1 sequence (Q62888 43-612): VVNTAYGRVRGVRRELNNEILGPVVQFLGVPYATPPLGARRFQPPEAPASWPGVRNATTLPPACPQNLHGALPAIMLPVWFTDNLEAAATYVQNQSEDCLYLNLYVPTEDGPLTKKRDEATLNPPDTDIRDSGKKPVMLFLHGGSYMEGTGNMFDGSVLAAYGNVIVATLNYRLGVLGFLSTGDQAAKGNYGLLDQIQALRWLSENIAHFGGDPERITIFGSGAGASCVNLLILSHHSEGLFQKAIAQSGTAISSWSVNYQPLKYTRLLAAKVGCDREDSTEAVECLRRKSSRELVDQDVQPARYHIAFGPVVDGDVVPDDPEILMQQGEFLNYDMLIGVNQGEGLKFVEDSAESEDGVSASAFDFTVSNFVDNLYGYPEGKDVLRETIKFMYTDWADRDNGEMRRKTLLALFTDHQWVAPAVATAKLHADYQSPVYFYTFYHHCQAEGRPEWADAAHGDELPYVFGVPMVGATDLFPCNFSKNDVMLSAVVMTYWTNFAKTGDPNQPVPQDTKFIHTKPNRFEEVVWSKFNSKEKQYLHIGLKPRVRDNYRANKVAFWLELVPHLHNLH

[4] = target: T1, rat NLGN2(+A) extracellular domain …; assay: SPR

Chain of rat NLGN2(+A) extracellular domain (Val43-His612, with splice insert SSA) (rat) (Q62888 43-612): as above

B1: human MDGA1 Ig1-Ig2 (MDGA1_C8, Y22-T237) (domain or fragment, UniProt Q8NFP4-1 22-237, looked up)
chain: YAPAQAQIVHAGQACVVKEDNISERVYTIREGDTLMLQCLVTGHPRPQVRWTKTAGSASDKFQETSVFNETLRIERIARTQGGRYYCKAENGVGVPAIKSIRVDVQYLDEPMLTVHQTVSDVRGNFYQEKTVFLRCTVNSNPPARFIWKRGSDTLSHSQDNGVDIYEPLYTQGETKVLKLKNLRPQDYASYTCQVSVRNVCGIPDKAITFRLTNTT
binding result [3]: binds

B2: MDGA1_C8 Mut4 (MDGA1 Ig1-Ig2 R105A, Y107A, R123A, F154A, R156A, Y187A) (domain or fragment, human, UniProt Q8NFP4-1 22-237, looked up)
chain: YAPAQAQIVHAGQACVVKEDNISERVYTIREGDTLMLQCLVTGHPRPQVRWTKTAGSASDKFQETSVFNETLRIERIARTQGGAYACKAENGVGVPAIKSIAVDVQYLDEPMLTVHQTVSDVRGNFYQEKTVALACTVNSNPPARFIWKRGSDTLSHSQDNGVDIAEPLYTQGETKVLKLKNLRPQDYASYTCQVSVRNVCGIPDKAITFRLTNTT
binding result [3]: binds

B3: hevin_C4 (L302-F664) (domain or fragment, human, UniProt Q14515 302-664, looked up)
chain: LEAISNHKETEEKTVSEALLMEPTDDGNTTPRNHGVDDDGDDDGDDGGTDGPRHSASDDYFIPSQAFLEAERAQSIAYHLKIEEQREKVHENENIGTTEPGEHQEAKKAENSSNEEETSSEGNMRVHAVDSCMSFQCKRGHICKADQQGKPHCVCQDPVTCPPTKPLDQVCGTDNQTYASSCHLFATKCRLEGTKKGHQLQLDYFGACKSIPTCTDFEVIQFPLRMRDWLKNILMQLYEANSEHAGYLNEKQRNKVKKIYLDEKRLLAGDHPIDLLLRDFKKNYHMYVYPVHWQFSELDQHPMDRVLTHSELAPLRASLVPMEHCITRFFEECDPNKDKHITLKEWGHCFGIKEEDIDENLLF
binding result [4]: binds

Continued, values first:

Kd [1]: 3.8 nM
Molecule: bovine neurexin 1α L1L6 (M1-S1339, without splice inserts) (domain or fragment)

Kd [2]: 37 to 96 nM
Molecule: rat NLGN2(+A) extracellular domain (Val43-His612, with splice insert SSA) (from UniProt Q62888-1 43-612) (domain or fragment)
